B1: Aptamer-N (structured_DNA)
DNA: GCTGGATGTCGCTTACGACAATATTCCTTAGGGGCACCGCTACATTGACACATCCAGC
B2: Aptamer-S (structured_DNA)
DNA: CAGCACCGACCTTGTGCTTTGGGAGTGCTGGTCCAAGGGCGTTAATGGACA

Legend:
[1] = target: SARS-CoV nucleocapsid protein (SARS-CoV, UniProt P59595 1-422); experiment: […], room temperature; pH not stated; conditions: protein: commercial; chain copies: 2
SARS-CoV spike RBD = SARS-CoV spike RBD (SARS-CoV, UniProt P59594 306-527); experiment: […], room temperature; pH not stated; conditions: protein: commercial
SARS-CoV-2 spike RBD = SARS-CoV-2 spike RBD (SARS-CoV-2, UniProt P0DTC2 319-541)

SARS-CoV nucleocapsid protein, sequence (P59595 whole entry): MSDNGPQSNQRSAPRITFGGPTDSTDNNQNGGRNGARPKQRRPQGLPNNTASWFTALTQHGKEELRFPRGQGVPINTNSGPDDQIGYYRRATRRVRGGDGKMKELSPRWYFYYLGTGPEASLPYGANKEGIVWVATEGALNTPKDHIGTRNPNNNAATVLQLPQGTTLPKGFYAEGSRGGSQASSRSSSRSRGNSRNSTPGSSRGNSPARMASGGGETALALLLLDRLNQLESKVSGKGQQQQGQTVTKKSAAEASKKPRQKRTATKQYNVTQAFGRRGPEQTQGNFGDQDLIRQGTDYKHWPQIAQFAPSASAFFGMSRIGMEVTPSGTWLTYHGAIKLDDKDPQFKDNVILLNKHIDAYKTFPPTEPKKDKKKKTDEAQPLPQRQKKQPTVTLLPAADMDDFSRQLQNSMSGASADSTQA

| Binder | binding result [1] | binding result (SARS-CoV spike RBD) | binding result (SARS-CoV-2 spike RBD) |
| --- | --- | --- | --- |
| B1 | binds |  |  |
| B2 |  | binds | binds |
